assay: yeast display, Sf9 membrane polyspecificity reagent, FACS + sequencing; frameworks hold sequencing errors
In short: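 In a synthetic yeast display library (Saccharomyces cerevisiae BJ5465), nanobody expression was induced with galactose for 36–48 hours. FACS gates were set low and high (top ~1%) using anti-HA fluorescence for expression and streptavidin fluorescence for binding of the Sf9 membrane reagent. Each polyreactivity label is drawn from the gate of origin.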

Sequence	polyreactivity (PSR sort gate)
QVQLVESGGGLVQAGGSLRLSCAASGSIIVYNTMGWYRQAPGKERELVAAITVRDDSTYYADSVKGRFTISRDYAKNTVYLQMNSLNPEDTAVYYCNARGYFLIGRDYWGQGTQVTVSS	low polyreactivity
QVQLVESGGGLVQAGGSLRLSCAASGSIIWLYAMGWYRQAPGKERELVAAISSGGSTYYADSVKGRFTISRDNAKNTVYLQMNSLKPEDTAVYYCAATYSSFRRYPGAHYRFGYWGQGSQVTVSS	high polyreactivity
QVQLVESGGGLVQAGGSLRLSCAASGSIIWRNTMGWYRQAPGKESELVARITGRGGRTNYADSVKGRFTISRDNAKNTVYLQMNSLKPEDTAVYYCAAAYPSVAYSYRYDYWGQGTQVTVSS	high polyreactivity
QVQLVESGGGLVQAGGSLRLSCAASGSIIWYYAMVWYRQAPGIERELGAAMTGTGGNTYYADSVKGRFTLSRDNAKNTVYLQMNSLKPEDTAVYYCDVRAYPSYPRGVYAYYYWGHGTQVTVSS	high polyreactivity
QVQLVESGGGLVQAGGSLRLSCAASGSIIYANAMGWYRQAPGKEREFVATITDSGAITYYADSVKGRFTISRDNAKNTVYLQMISLKPEDTAVYYCNKDLVVYSVPTHDYDYWGQGTQVTVSS	low polyreactivity
QVQLVESGGGLVQAGGSLRLSCAASGSIIYAYAMGWYRQAPGKERELVAGIRDGGSTYYADSVKCRFTISRDNAKNTVYLQMNSLKPEDTAVYYCAAGPRIRDDYWGQGTQVTVSS	low polyreactivity
QVQLVESGGGLVQAGGSLRLSCAASGSIIYGYAMGWYRQAPGKERELVASISSGGSTNYADSVKGRFTISRDNAKNTVYLQMNSLKPEDTAVYYCAAYFQRSGFSFRLRGQGTQVTVSS	high polyreactivity
QVQLVESGGGLVQAGGSLRLSCAASGSIIYRNAMGWYRQAPGKERELDAAISYSGTSTNYADSVKGRFTISRDNAKNTVYLQMNSLKPEDTAVYYCAARGFPHRRHSLYDYWGQGTHVTVSS	low polyreactivity
QVQLVESGGGLVQAGGSLRLSCAASGSILAAYAKGWYRQAPGKERELVAAISLDDGSTYYADSVKGRFTISRDNAKNTVYFQMNSLKPVDTAVYYCAADYYVRSQLLYATSGNYWGQGTQVTVTS	high polyreactivity
QVQLVESGGGLVQAGGSLRLSCAASGSILAGYAMGWYRQAPGKERELVAAITGGYVRSYYADSVKGRFTISRDNAKNTDYLQMNSLKPEDTAVYYCAATWGSVQKGTYYYWGQGTQVTVSS	low polyreactivity
QVQLVESGGGLVQAGGSLRLSCAASGSILAINAMGWYRQAPGKERELVAAINWSRGSTFYADSVKGRFTISRDNAKNTVYLQMNSLKPEDTAVYYCNVEWTDSERGDYYVDYDYWGQGTQVTVSS	low polyreactivity
QVQLVESGGGLVQAGGSLRLSCAASGSILARYAMGWYRQAPGKERELVAAISYNGGSTYYADSVKGRFTISRDNAKNTVYLQMNSRKPEDTAVYYCAKAYDTTLTYNYWGQGTQVTVSS	low polyreactivity
QVQLVESGGGLVQAGGSLRLSCAASGSILASYAMGWYRQAPGKERELVAAINRGGRTKYADSVKGRFTISRDNAKNTVYLQMNSLKPEDTAVYYCAKSDSQYEGDGYWGQGTQVTVSS	high polyreactivity
QVQLVESGGGLVQAGGSLRLSCAASGSILDGNAMGWYRQAPGKERELVAAITRSGGRTYYADSVKGRFTISRDNAKNTVYLQMNSLKPEDTAVYYCNVDVPGVRFEYWGQGTQVTVSS	low polyreactivity
QVQLVESGGGLVQAGGSLRLSCAASGSILDIYAMGWSRQAPGKERELVAGISTSGGSTYYADSVKGRFTISRDNAKNTVYLQMNSLKPEDTAVYYCAKDYGYQGHTRTLYWAYLEYDYWGQGTQVTVSS	low polyreactivity
QVQLVESGGGLVQAGGSLRLSCAASGSILDIYAMGWSRQAPGKERELVAGMSTTGGSTYYADSVKGRFTISRDNAKNTVYLQMNSLKPEDTAVYYCAKDYGYQGHTRTLYWAYLEYDYWGQGTQVTVSS	low polyreactivity

Sequence	polyreactivity (PSR sort gate)
QVQLVESGGGLVQAGGSLRLSCAASGSILDIYAMGWYRQAPGKERELVASISWGGGSTYYADSVKGRFTISRDNAKNTVYLQMNSLKQEDTAVYYCNAVYDLYHYWKFYYWGQGTQVTVSS	low polyreactivity
QVQLVESGGGLVQAGGSLRLSCAASGSILDRNAMGWYRQAPGKERELVAAISRSRGSTYYADSVKGRFTISRDNAKNTVYLQMNSLKPEDTAVYYCNAYYPFYTLIYGGPVRYYNFDYWGQGPQVTVSS	high polyreactivity
QVQLVESGGGLVQAGGSLRLSCAASGSILDSNAMGWYRQAPGQERELVAAISRSGVSTHYADSVKGRFSISRDNAKNTVYLQMNSLKPEDTAVYYCARTGQSLYSRYYYWGQGTQVTVSS	low polyreactivity
QVQLVESGGGLVQAGGSLRLSCAASGSILEIYAMGWYRQAPGKESEFVASISWDVSSTYYADSVKGRFTISRDNAKNTVYLQMNSLKPEDTAVYYCATSLVWGLYDWYYDLSAAFDYWGQGTQVTVSS	low polyreactivity
QVQLVESGGGLVQAGGSLRLSCAASGSILEPYAMGWYRQAPGKERELVAAISSSGGSTRYADSVKGRFTISRDNAKNTVYLQMNSLKPEDTAVYYCAARFRAKFNYWGQGTQVTVSS	low polyreactivity
QVQLVESGGGLVQAGGSLRLSCAASGSILEVYAMGWYRQAPGKERELVAAISDGDSTYYADSVKGRFTISRDNAKNTVYLQMNSLKPEDTAVYYCAAEFVGTLWWYDDWGQGTQVTVSS	low polyreactivity
QVQLVESGGGLVQAGGSLRLSCAASGSILFANAMGWYRQAPGKERELVAAIRGSGSTYYADSVKGRFTISRDNAKNTVYLQMNSLKPEDTAVYYCAKRHLISIPDYGRHEYDYWGQGTQVTVSS	low polyreactivity
QVQLVESGGGLVQAGGSLRLSCAASGSILFTNAMGWYRQAPGKERELVAAISSGGSTYFADSVKGRFTISRDNAKNTVYLQMNSLKQEDTAVYYCAADQLNVGREYVEYDYWGQGTQVTVSS	low polyreactivity
QVQLVESGGGLVQAGGSLRLSCAASGSILFTNAMGWYRQAPGKERELVAAISSGGSTYYADSVKGRFTISRDNAKNTVYLQMNSLKPEDTAVYYCAASDHYRWYVHRWEDPFYYWGQGTQVTVSS	low polyreactivity
QVQLVESGGGLVQAGGSLRLSCAASGSILGGNAMGWSRQAPGKERELVAAITFSGGGTYYADSVKGRFTISRDNAKNTVYLQMNSLKPEDTAVYYCAADKDGYTYEFDYWGQGTQVTVSS	low polyreactivity
QVQLVESGGGLVQAGGSLRLSCAASGSILGHYAMGWYRQAPGKERELVAAISWSGGSTYYADSVKGRFTISRDNAKNTVYLQMNSLKPEDTAVYYCNAAAILYTSAGSLYWYDYWGQGTQVTVSS	low polyreactivity
QVQLVESGGGLVQAGGSLRLSCAASGSILGIKVMGWYRQAPGKERELVAAISRRGGSTYYADSVKGRFTISRDNAKNTVYLQMNSLKPEDTAVYYCAATRTARTMGYWGQGTQVTVSS	high polyreactivity
QVQLVESGGGLVQAGGSLRLSCAASGSILGRNAMGWYRQAPGKERELVAGITWSTVSTYYADSVKGRFTISRDNAKNTVYLQMNSLKPEDTAVYYCAAAPNLWAYRRWYYTYYYWGQGTQVTVSS	high polyreactivity
QVQLVESGGGLVQAGGSLRLSCAASGSILGTYAMGWYRQAPGKERELVAAISSSGRTSYADSVKGRFTISRDNAKNTVYLQMNSLKPEDTAVYYCNASNYIVLINDPDAAPWLYDYWGQGTQVTVSS	low polyreactivity
QVQLVESGGGLVQAGGSLRLSCAASGSILGTYAMGWYRQAPGKERELVARISRGGSTNYADSVKGRFTISRDNAKNTVYLQMNILKPEDTAVYYCAKRLYLPESWRYYYWGQGTQVTVSS	high polyreactivity
